Target: human C5a receptor (human) (UniProt P21730)
Test: cell-based or functional assay

human C5a receptor (human), sequence (P21730 whole entry): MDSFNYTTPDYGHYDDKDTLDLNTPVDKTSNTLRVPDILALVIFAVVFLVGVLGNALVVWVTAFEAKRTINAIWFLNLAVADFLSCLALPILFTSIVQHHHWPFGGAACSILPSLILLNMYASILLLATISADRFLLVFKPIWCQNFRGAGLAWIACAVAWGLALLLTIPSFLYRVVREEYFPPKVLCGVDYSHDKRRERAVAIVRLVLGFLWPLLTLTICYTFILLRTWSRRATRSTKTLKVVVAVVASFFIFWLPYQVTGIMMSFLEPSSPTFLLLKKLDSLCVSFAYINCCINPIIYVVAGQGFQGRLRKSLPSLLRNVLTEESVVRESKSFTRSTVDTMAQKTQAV

Row | half effective concentration (EC50) of chemotaxis of BA/F3/huC5aR cells | Substance
1 | 0.3 nM | mouse C5a (from UniProt P06684 679-755) (ligand)
2 | 0.1 nM | recombinant human C5a (from UniProt P01031 678-751) (ligand)

Reference: patent US20180223285A1
